The values below are quoted from earlier work in paper PMC6628902.

The series concerns the target CXCL12 (Homo sapiens) (UniProt P48061).

Sequence of CXCL12 (Homo sapiens) (P48061 22-89): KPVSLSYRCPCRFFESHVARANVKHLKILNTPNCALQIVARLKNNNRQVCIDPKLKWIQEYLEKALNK
Sequence of CXCR4 (P61073 whole entry): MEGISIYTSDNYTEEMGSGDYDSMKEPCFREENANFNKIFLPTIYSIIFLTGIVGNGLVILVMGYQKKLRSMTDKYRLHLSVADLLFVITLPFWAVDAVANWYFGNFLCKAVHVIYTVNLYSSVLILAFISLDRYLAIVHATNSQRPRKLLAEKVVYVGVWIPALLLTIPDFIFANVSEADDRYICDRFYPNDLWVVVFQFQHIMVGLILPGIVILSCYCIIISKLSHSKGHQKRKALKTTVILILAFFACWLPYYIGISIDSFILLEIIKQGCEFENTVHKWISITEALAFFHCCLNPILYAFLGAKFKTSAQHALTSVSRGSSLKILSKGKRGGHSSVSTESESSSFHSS

Turning to CXCR4 (from UniProt P61073), the Kd (in general, a measure of binding affinity in units of concentration) is 4.5 nM.
